Key:
Assay in all cases: cell-based or functional assay
PLCβ3-Δ892 ΔXY1 = target: T1, PLCβ3-Δ892 ΔXY1 (Homo sapiens, UniProt Q01970 10-892, ΔXY1 (residues 471–569))
T1 sequence (looked up): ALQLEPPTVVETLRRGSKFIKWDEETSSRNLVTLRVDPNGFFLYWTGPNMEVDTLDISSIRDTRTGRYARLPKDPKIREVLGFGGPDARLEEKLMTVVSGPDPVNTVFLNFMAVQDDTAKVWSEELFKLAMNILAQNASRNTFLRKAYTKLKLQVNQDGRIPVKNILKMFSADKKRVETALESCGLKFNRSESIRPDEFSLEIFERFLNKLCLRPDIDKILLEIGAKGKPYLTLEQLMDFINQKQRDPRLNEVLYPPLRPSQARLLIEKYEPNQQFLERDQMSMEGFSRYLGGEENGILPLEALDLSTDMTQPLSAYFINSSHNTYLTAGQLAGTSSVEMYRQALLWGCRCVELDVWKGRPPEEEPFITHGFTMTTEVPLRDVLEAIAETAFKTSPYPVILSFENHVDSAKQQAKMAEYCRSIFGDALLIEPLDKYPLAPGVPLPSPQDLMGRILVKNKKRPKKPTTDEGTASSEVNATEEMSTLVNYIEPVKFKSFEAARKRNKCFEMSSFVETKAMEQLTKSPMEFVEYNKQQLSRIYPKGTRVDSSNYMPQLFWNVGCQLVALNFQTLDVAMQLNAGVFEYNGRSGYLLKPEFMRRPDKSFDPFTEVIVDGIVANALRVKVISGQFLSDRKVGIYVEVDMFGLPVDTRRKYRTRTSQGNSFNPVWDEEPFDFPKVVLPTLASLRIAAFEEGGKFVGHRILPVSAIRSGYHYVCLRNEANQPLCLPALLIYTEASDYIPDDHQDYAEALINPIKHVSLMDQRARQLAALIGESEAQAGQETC

PLCβ3 ΔXY2 = target: T2, PLCβ3 ΔXY2 (Homo sapiens, UniProt Q01970 10-1234, ΔXY2 (residues 471–584))
T2 sequence (looked up): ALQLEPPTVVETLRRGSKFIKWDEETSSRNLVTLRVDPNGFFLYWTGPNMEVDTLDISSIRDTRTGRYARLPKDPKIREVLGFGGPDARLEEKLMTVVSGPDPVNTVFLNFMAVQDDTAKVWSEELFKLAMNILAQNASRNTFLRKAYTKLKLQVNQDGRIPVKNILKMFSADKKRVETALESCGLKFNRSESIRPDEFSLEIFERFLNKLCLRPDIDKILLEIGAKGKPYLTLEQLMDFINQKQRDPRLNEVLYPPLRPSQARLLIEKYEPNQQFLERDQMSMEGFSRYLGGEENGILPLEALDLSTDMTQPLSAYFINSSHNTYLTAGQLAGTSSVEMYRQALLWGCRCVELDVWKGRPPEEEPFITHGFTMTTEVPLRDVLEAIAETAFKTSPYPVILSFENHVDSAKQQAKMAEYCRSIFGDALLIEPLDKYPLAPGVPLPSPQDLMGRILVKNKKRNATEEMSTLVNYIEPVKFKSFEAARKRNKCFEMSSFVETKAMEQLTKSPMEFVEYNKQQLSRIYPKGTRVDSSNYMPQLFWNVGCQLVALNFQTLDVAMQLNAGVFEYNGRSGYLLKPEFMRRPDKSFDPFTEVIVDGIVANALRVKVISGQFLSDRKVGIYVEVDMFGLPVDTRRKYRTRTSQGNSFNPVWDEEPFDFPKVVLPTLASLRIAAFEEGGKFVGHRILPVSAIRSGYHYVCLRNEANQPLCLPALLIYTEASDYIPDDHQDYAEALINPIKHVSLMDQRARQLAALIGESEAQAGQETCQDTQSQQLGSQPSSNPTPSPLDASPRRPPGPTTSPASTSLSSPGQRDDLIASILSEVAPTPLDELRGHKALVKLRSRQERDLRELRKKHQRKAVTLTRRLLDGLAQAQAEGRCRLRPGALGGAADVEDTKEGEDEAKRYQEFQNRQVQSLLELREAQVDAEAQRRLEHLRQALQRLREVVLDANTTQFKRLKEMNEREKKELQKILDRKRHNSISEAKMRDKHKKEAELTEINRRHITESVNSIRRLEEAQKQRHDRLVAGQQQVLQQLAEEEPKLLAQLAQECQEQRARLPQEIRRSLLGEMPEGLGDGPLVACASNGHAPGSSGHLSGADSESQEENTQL

[1] = target: T3, PLCβ3-Δ892 (residues 10–892) (Homo sapiens, UniProt Q01970 10-892)
T3 sequence (looked up): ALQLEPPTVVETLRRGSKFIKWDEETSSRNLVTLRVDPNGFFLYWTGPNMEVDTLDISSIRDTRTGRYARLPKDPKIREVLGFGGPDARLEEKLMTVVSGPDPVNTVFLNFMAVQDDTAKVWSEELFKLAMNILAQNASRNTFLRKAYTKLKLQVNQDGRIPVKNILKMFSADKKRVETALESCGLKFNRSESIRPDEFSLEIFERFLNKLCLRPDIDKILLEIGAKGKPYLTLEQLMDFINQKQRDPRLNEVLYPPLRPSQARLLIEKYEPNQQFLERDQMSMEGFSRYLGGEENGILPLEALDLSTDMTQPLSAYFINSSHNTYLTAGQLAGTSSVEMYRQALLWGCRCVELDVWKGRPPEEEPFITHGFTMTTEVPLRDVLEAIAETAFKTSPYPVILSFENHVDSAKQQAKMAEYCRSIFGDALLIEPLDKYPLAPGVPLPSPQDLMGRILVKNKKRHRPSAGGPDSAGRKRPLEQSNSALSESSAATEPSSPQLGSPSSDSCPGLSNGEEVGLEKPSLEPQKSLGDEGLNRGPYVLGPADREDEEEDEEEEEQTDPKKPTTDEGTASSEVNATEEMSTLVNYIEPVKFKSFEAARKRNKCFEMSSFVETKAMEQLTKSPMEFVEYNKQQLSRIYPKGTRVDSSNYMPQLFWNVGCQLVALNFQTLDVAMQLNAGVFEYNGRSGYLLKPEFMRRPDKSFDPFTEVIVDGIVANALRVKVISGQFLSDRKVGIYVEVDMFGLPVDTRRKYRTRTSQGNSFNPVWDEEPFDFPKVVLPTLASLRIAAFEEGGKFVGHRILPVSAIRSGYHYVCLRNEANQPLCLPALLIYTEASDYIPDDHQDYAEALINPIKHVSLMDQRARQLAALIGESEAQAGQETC

B1: Activated Gαq (Gαq·GDP-ALF4^−) (natural protein, murine, UniProt P21279 7-359, looked up)
chain: MACCLSEEAKEARRINDEIERQLRRDKRDARRELKLLLLGTGESGKSTFIKQMRIIHGSGYSDEDKRGFTKLVYQNIFTAMQAMIRAMDTLKIPYKYEHNKAHAQLVREVDVEKVSAFENPYVDAIKSLWNDPGIQECYDRRREYQLSDSTKYYLNDLDRVADPSYLPTQQDVLRVRVPTTGIIEYPFDLQSVIFRMVDVGGQRSERRKWIHCFENVTSIMFLVALSEYDQVLVESDNENRMEESKALFRTIITYPWFQNSSVILFLNKKDLLEEKIMYSHLVDYFPEYDGPQRDAQAAREFILKMFVDLNPDSDKIIYSHFTCATDTENIRFVFAAVKDTILQLNLKEYNLV
x-fold maximum activity over basal (complex against the PLCβ3 variant alone) (PLCβ3-Δ892 ΔXY1): 2 x-fold
x-fold maximum activity over basal (complex against the PLCβ3 variant alone) (PLCβ3 ΔXY2): 2 x-fold
x-fold maximum activity over basal (complex against the PLCβ3 variant alone) [1]: 22 x-fold
